# Test results published in paper PMC4855144.
# Target: GFP-N-WASP WH1-GBD
# Experiment: co-IP; GFP microbeads precipitate GFP-N-WASP and fragments ΔWA, WH1, WH1-GBD from HEK293T cell extracts; endogenous CRN7 detected with mAb K37-142-1; ratio of co-IP to IP
# Sequence of GFP-N-WASP WH1-GBD (O00401 whole entry, the tested form may be a part): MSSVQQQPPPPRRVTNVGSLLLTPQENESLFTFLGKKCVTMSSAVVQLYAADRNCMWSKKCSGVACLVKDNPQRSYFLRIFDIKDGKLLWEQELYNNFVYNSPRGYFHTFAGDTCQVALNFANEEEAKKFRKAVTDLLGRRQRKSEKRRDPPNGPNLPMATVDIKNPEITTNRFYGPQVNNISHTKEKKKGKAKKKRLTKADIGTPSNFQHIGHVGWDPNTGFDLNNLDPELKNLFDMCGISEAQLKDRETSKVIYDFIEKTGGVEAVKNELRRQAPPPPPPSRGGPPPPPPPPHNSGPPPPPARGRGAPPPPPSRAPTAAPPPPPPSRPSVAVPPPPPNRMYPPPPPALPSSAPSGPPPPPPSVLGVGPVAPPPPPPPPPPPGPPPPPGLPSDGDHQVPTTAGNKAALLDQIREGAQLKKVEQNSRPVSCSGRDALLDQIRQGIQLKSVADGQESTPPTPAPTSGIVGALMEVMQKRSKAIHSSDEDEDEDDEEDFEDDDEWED
binder,measurement,value
endogenous CRN7 (Coronin7) of HEK293T cells (natural protein) MNRFRVSKFRHTEARPPRRESWISDIRAGTAPSCRNHIKSSCSLIAFNSDRPGVLGIVPLQGQGEDKRRVAHLGCHSDLVTDLDFSPFDDFLLATGSADRTVKLWRLPGPGQALPSAPGVVLGPEDLPVEVLQFHPTSDGILVSAAGTTVKVWDAAKQQPLTELAAHGDLVQSAVWSRDGALVGTACKDKQLRIFDPRTKPRASQSTQAHENSRDSRLAWMGTWEHLVSTGFNQMREREVKLWDTRFFSSALASLTLDTSLGCLVPLLDPDSGLLVLAGKGERQLYCYEVVPQQPALSPVTQCVLESVLRGAALVPRQALAVMSCEVLRVLQLSDTAIVPIGYHVPRKAVEFHEDLFPDTAGCVPATDPHSWWAGDNQQVQKVSLNPACRPHPSFTSCLVPPAEPLPDTAQPAVMETPVGDADASEGFSSPPSSLTSPSTPSSLGPSLSSTSGIGTSPSLRSLQSLLGPSSKFRHAQGTVLHRDSHITNLKGLNLTTPGESDGFCANKLRVAVPLLSSGGQVAVLELRKPGRLPDTALPTLQNGAAVTDLAWDPFDPHRLAVAGEDARIRLWRVPAEGLEEVLTTPETVLTGHTEKICSLRFHPLAANVLASSSYDLTVRIWDLQAGADRLKLQGHQDQIFSLAWSPDGQQLATVCKDGRVRVYRPRSGPEPLQEGPGPKGGRGARIVWVCDGRCLLVSGFDSQSERQLLLYEAEALAGGPLAVLGLDVAPSTLLPSYDPDTGLVLLTGKGDTRVFLYELLPESPFFLECNSFTSPDPHKGLVLLPKTECDVREVELMRCLRLRQSSLEPVAFRLPRVRKEFFQDDVFPDTAVIWEPVLSAEAWLQGANGQPWLLSLQPPDMSPVSQAPREAPARRAPSSAQYLEEKSDQQKKEELLNAMVAKLGNREDPLPQDSFEGVDEDEWD,fold binding (co-IP to IP ratio) over WH1 alone,4 fold
